Where a chain is given by its changes, count along the chain named. In names and notes the source's numbering stands.
B1: LuUGT74S1 (Linum usitatissimum; H194S) (protein)
chain: MAGDEREKAHCLVVPAAAQGHFTPLLQFSKRLIPKRIRVTLALTRFIHSTMTVTAQSGIHIDTISDGFDHSGLILQDPEHYSQTFRRVGSETLTDLIRKQSESRHPVHCIIYDASMPWFLDVAKRFGIVGAAFLTQSCAVNAIYYHLREGTIKRPVVSDPAAGTLVIDGLPPLEVSDLPSFIWDDLHTEFLAASLRQFSNDGADWVFCNTVYQLELEAVDWLTKQWLINFRTIGPTIPSFYLDKQIPDDKDYDISIFNPQNQTCMNWLQSKPDGSVVYVSFGSLARLSPQQTEELYFGLKNSNHYFLWVVRESEVAKLPKEEYLSGEKGLVVSWCSQLQVLASGKVGCFVTHCGWNSTLEALSLGVPMVAMPECGDQLTNAKFIKDVWKTGVRAEADDGKGIMWGMIKREVIERCIREVMEGEETRRNADKWGKIIKEAVVEGGSSDKNTEDFATSLINFAETFQFSC
notes: N-terminal GST fusion (pGEX-4T-1, EcoRI/NotI), tag kept (eluted with glutathione); codon-optimised synthetic gene; E. coli BL21(DE3) pLysS
B2: LuUGT74S1 (Linum usitatissimum; Q136F) (protein)
chain: B1 chain with Q136F, S194H
notes: as for B1
B3: LuUGT74S1 (Linum usitatissimum; Q136E) (protein)
chain: B1 chain with Q136E, S194H
notes: as for B1
B4: LuUGT74S1 (Linum usitatissimum; S115A) (protein)
chain: B1 chain with S115A, S194H
notes: as for B1
B5: LuUGT74S1 (Linum usitatissimum; Q136S) (protein)
chain: B1 chain with Q136S, S194H
notes: as for B1
B6: LuUGT74S1 (Linum usitatissimum; A17S) (protein)
chain: B1 chain with A17S, S194H
notes: as for B1
B7: LuUGT74S1 (Linum usitatissimum; S115F) (protein)
chain: B1 chain with S115F, S194H
notes: as for B1
B8: LuUGT74S1 (Linum usitatissimum; Y144F) (protein)
chain: B1 chain with Y144F, S194H
notes: as for B1
B9: LuUGT74S1 (Linum usitatissimum) (protein)
chain: B1 chain with S194H
notes: as for B1

substrate: COc1cc(C[C@@H](CO)[C@H](CO)Cc2ccc(O)c(OC)c2)ccc1O; assay: UDP-Glo glycosyltransferase assay (UDP release), Michaelis-Menten fit; format: biochemical, Linum usitatissimum; settings: apparent, UDP-glucose 1.64 mM constant (general assay text says 100 μM), 50 mM phosphate pH 8, 30 °C, 30 min, total of mono- and diglucosylation
Excerpt: UDP-Glo glycosyltransferase assay (UDP release), Michaelis-Menten fit on LuUGT74S1

B1 and B2 are within 1.5-fold of each other in Km: 122 ± 12 µM for the first, 165 ± 9 µM for the second.

B3 and B4 are within error of each other in Km: 69 ± 2 µM for the first, 70 ± 2 µM for the second.

B5 and B6 are within 1.5-fold of each other in Km: 75 ± 1 µM for the first, 68 ± 1 µM for the second.

B7 and B8 are within 1.5-fold of each other in Km: 75 ± 1 µM for the first, 72 ± 1 µM for the second.

Protein B9 has a Km of 74 ± 1 µM.

Going from B1 to B2, the Vmax falls from 0.384 µmol/min/mg to 0.324 µmol/min/mg.

Compared with B3, B4 is higher in Vmax: 0.858 µmol/min/mg for the first, 0.894 µmol/min/mg for the second.

First: B5
Second: B6
The Vmax of the first is higher: 1.02 µmol/min/mg for the first, 0.75 µmol/min/mg for the second.

First: B7
Second: B8
The Vmax of the first is lower: 0.834 µmol/min/mg for the first, 0.9 µmol/min/mg for the second.

With B9 the Vmax was 0.948 µmol/min/mg.

B1 and B2 are within error of each other in kcat: 0.34 ± 0.06 s⁻¹ for the first, 0.29 ± 0.04 s⁻¹ for the second.

B3 and B4 are within error of each other in kcat: 0.75 ± 0.02 s⁻¹ for the first, 0.76 ± 0.08 s⁻¹ for the second.

B5 and B6 are within error of each other in kcat: 0.92 ± 0.71 s⁻¹ for the first, 0.56 ± 0.45 s⁻¹ for the second.

B7 and B8 are within error of each other in kcat: 0.77 ± 0.02 s⁻¹ for the first, 0.75 ± 0.02 s⁻¹ for the second.

B9 showed a kcat of 0.8 ± 0.01 s⁻¹.

Going from B1 to B2, the kcat/Km falls from 3000 M⁻¹ s⁻¹ to 2000 M⁻¹ s⁻¹ (1.5-fold).

B3 and B4 are the same in kcat/Km: 11000 M⁻¹ s⁻¹ for the first, 11000 M⁻¹ s⁻¹ for the second.

Going from B5 to B6, the kcat/Km falls from 12000 M⁻¹ s⁻¹ to 8000 M⁻¹ s⁻¹ (1.5-fold).

B7 and B8 are the same in kcat/Km: 10000 M⁻¹ s⁻¹ for the first, 10000 M⁻¹ s⁻¹ for the second.

B9 showed a kcat/Km of 11000 M⁻¹ s⁻¹.

Source: article PMC11403609, “Kinetics of Secoisolariciresinol Glucosyltransferase LuUGT74S1 and Its Mutants” (Journal of Agricultural and Food Chemistry, 2024)
